In article PMC3549492 one finds fold increase of Kif1a-MT binding with Dcx in the presence of ADP, against a Dcx-negative control and increase in binding of Kif1a to MTs with Dcx (amino acids 1-270) over control data, which are given here for two molecules.

For assay [1], the target named is N-terminal HaloTag human KIF1A (amino acids 1-361) fusion protein (human) (UniProt Q12756). As to the kind of experiment: pull-down; HaloTag-Kif1a (1-361) on HaloLink magnetic beads under saturated conditions; MTs with or without full-length human Dcx; 5 μM of each protein; 4 mM ATP, ADP or AMP-PNP; supernatant and pellet, silver staining, densitometry, bound fraction P/(S+P) normalized to ATP without Dcx.

The target of assay [2] is MTs of the traditional MT pull-down assay from lysates. Put plainly: pull-down; traditional MT pull-down assay with AMP-PNP; lysates from HEK cells expressing Kif1 (1-365) with or without Dcx (amino acids 1-270); excess MTs.

porcine MTs (microtubules) (complex): the fold increase of Kif1a-MT binding with Dcx in the presence of ADP, against a Dcx-negative control in assay [1] worked out at 2 fold.

B1: motor domain of Kif1 (amino acids 1-365) (domain or fragment)
chain: MAGASVKVAVRVRPFNSREMSRDSKCIIQMSGSTTTIVNPKQPKETPKSFSFDYSYWSHTSPEDINYASQKQVYRDIGEEMLQHAFEGYNVCIFAYGQTGAGKSYTMMGKQEKDQQGIIPQLCEDLFSRINDTTNDNMSYSVEVSYMEIYCERVRDLLNPKNKGNLRVREHPLLGPYVEDLSKLAVTSYNDIQDLMDSGNKARTVAATNMNETSSRSHAVFNIIFTQKRHDAETNITTEKVSKISLVDLAGSERADSTGAKGTRLKEGANINKSLTTLGKVISALAEMDSGPNKNKKKKKTDFIPYRDSVLTWLLRENLGGNSRTAMVAALSPADINYDETLSTLRYADRAKQIRCNAVINEDPN
Take B1: in assay [2], the increase in binding of Kif1a to MTs with Dcx (amino acids 1-270) over control was in the range of 15 to 20%.
